Measurements published in a protein production outcome set (Wang et al. 2014).

Assay: label from the status in PepcDB records

With “MKRKKPTIHDVAAKAGVGLGTVSRVLNDHPAVRHETRARVLRAMEELGYAPNPHARRIAGGRSYTVSVLLPFVATEFYRRLVEGIEGVLLEQRYDLALFPILSLARLKRYLENTTLAYLTDGLILASYDLTERFEEGRLPTERPVVLVDAQNPRYDSVYLDNRLGGRLAGAYLARFPGPIFAIAVEEEPDRAFRRTVFAERMAGFQEALKEAGRPFSPDRLYITRHSQEGGRLALRHFLEKASPPLNVFAGADQV” the protein production was “not failed”.
With “MGPKRRQLTFREKSRIIQEVEENPDLRKGEIARRFNIPPSTLSTILKNKRAILASERKYGVASTCRKTNKLSPYDKLEGLLIAWFQQIRAAGLPVKGIILKEKALRIAEELGMDDFTASNGWLDRFRRRRS” the protein production was “not failed”.
For “MRIFKALLKMEFLLTKRQLANLIMAIGMPVAFFLFFSGFMGEGLTKAIEAIYVRNYMITMAGFSSLSFAFFTFPFSMKDDQLSNRMQLLRHSPVPMWQYYLAKIIRILFYYCLAITVVFLTGHILRQVSMPIEQWMQSFLLLLGGATCFIPFGLLVSYFKNTELMSMVANICYMSLAVLGGMWMPITMFPKWLQALSKLTPTYHLTQVILSPFANSFAGFSLIILIGYGIIMLVIAYLLSQKRHSI”, the protein production was “failed”.
For “MSEPYGKAFSLMRAEAEPAWRAYTHHAFVEGLKAGTLPREAFLHYLQQDYVFLIHFSRAWALAVVKSETHSEMLAAVGTVNALVAEEMQLHIGICEASGISQEALFATRERAENLAYTRFVLEAGYSGDLLDLLAALAPCVMGYGEIGKRLTAEATSTLYGDWIDTYGGDDYQAACKAVGTLLDDALERRLGAEFTSSPRWSRLCQTFHTATELEVGFWQMGLTP”, the protein production was “not failed”.
With “MSANDSAVNESCHCGGCGSSGNGKFLNETPMLDQLESGPWPSFISGFKALAERTEKPMLRGVLDQLEYSYKTKMGYWKGGLVTVDGYGAGIITRYSMIKDKFPEAAEFHTMRIQPAPGLHYNTTMLRELCDIWEKYGSGIITLHGQTGDIMLQGIEQDKVQACFDELNQKGWDLGGAGAGMRTGVSCIGPGRCDNACYDNLKLHLEALKHFSPQVHRPEWNYKLKFKFSGCPNDCTNAIMRSDLAVIGTWRDSIQIDHDEVKAWIAEKGVDALVNNVINRCPTKAIRLQDGDIDISTRDCVRCMHCINAMSKALSPGKDKGIALLIGGKNTLKVGVNMGSLIVPFMKMETDEDREAFIELIEEIIDWWDDAGLDHERIGETIERVGLKQFLDGVGIEYDINQISRPRDNPYFKAKY” the protein production was “failed”.
In the case of “MKQEEDKFTGLPENAFRELKAGEVYNPLMSPSKNYPEVNFWSVTWGIAMAILFSAAAAYLGLKVGQVFEAAIPIAIIAVGVSGAAKRKNALGENVIIQSIGACSGVIVAGAIFTLPALYILQVKYPEMTVSFMQVFISSLLGGVLGILFLIPFRKYFVSDMHGKYPFPEATATTQVLVSGEKSGSQAKPLLMAGMIGGLYDFIVATFGWWNENFTTRVCGAGEMLAEKAKLVFKVNTGAAVLGLGYIVGLKYASIICAGSLAVWWIIIPGMSAIWGDSVLNAWNPEITSTVGMMSPEEIFKYYAKSIGIGGIAMAGVIGIIRSWGIIKSAVGLAAKEMGGKGNVEKNIVRTQRDLSMKIIAIGSILTLILIVLFFYFDIMQGNIVHTLVAIALVAGISFLFTTVAANAIAIVGTNPVSGMTLMTLILASVVMVAVGLKGPSGMVAALVMGGVVCTALSMAGGFITDLKIGYWLGSTPAKQETWKFLGTIVSAATVGGVMIILNKTYGFTSGALAAPQANAMAAVIEPLMSGVGAPWLLYGIGAILAIVLTFFKIPALAFALGMFIPLELNVPLVVGGAVNWYVTSRSKDTALNTERGEKGTLLASGFIAGGALMGVVSAAMRFGGINLVNEAWLNNTWSEVLALGAYALLILYFIKASMKVK”, the protein production is reported as “failed”.
In the case of “MLDTLVFGCVAFPLLAALAVYFVRGEAARRLIVPGAVAVTALSALGMAGSGPIMFAPKSFLGIGLDGLIAFLDFALLFYILYLGTKMRHLLIMGMTVLQIVGLIYLEFFLMDHGATVPGFYVDSLSLTMVLIISFVGGLICVYGLGYMKEHEEHLHLPQTKQPRFFFFVVLFLGAMNGLVLSNNLAWMYFFWEITTLCSFMLIGHDGTDEAKTNATRALWMNMVGGVAFVFALLFLQKGMGTLSVQDILARAVEPEMRTTAVLLPMAMLCLAGFTKSAQLPFQSWLCGAMVAPTPVSALLHSSTMVKAGVYLILRMAPGYAGTALSTGVALFGAFTFIVTSALAAGQSNGKKILAYSTIANLGLIVACAGINTAASVAAAMMLIIFHAISKGLLFLCVGAIEQKIGSRNIEDMRNLFERMPRTAVITVIGIVTMMLPPFGMLIAKWMAIESAAGAMSAMPLLVIMIALGSALTVLFWARWAGIMLGSSRPGFGPMQEEQDITIRLPLVSLVGGALVLSLLAPFVYTGLVEPAIAMYAKASAYGVSIGTIGNTMGAFAVYPLYLLLGAGFYYAWRAARNTPDSAASLPYMGGSQMTQDGVVGFNGPMNQFVPNAAGNYYLEKLFGEAQLTKPGNVVAIVLLILMIGGML”, the protein production is reported as “failed”.
For “MSLSGTLIGAAAGGTVGLVASIYRDSKRKIIRDLQKQDIQYVEYGDTRTLIIPTDKYFMFSSPRLNEICYPGLNNVIRLLNFYPQSTIYVAGFTDNVGSRSHKRKLSQAQAETMMTFLWANGIAAKRLKAEGYGDKNAISDNAIIHGSAQNRRIEIQWFTSEGHHHHHH”, the protein production was “not failed”.
For “MMITRGGAKAAKSLLVAAGPRLFSTVRTVSSHEALSASHILKPGVTSAWIWTRAPTIGGMRFASTITLGEKTPMKEEDANQKKTENESTGGDAAGGNNKGDKGIASYWGVEPNKITKEDGSEWKWNCFRPWETYKADITIDLKKHHVPTTFLDRIAYWTVKSLRWPTDLFFQRRYGCRAMMLETVAAVPGMVGGMLLHCKSLRRFEQSGGWIKALLEEAENERMHLMTFMEVAKPKWYERALVITVQGVFFNAYFLGYLISPKFAHRMVGYLEEEAIHSYTEFLKELDKGNIENVPAPAIAIDYWRLPADATLRDVVMVVRADEAHHRDVNHFASDIHYQGRELKEAPAPIGYH”, the protein production was “failed”.
With “MLAFNLLRSAHMLNPALQVLAKDGSIADNTYQPIAEDGVIPAGDVVMTTAQLDQLTAIQGKKALYITVNDSPETHQFPLDQLDAIFIEFAGFNDGRGYSFAALLRRQGYQGELRAVGDIFKDVLNYLKRSGFDTFVIKEGKDIQEAAAGLNDFRQPYQASTAVPQADYQTGA” the protein production was “failed”.
In the case of “MSVLIYVESNGSEIKKSSMDAVAYGTQVASKLGGSAIVVAIGNIPQEQLTALGNFGASKVLHVTGDAFNQNAPLASAAAVVEAAKKAGAKVIVLPKSTLVDSFAPKLASQLKAGVVTNVTELPDTSAGFQVKRSIFTGKAFATVSINTDIKVITLAKNAYQGTETGGTAAVEALSVSLTDADTKVKTTNVEKMSGELLLTEAEIVVSGGRGLKGPENWGVLLDLAKALGAATGCSKPVSDMDWRPHHEHVGQTGVKVAPNLYIAVGISGAIQHLAGVNSSKCIVVINKDPEAPFFKAADYGIVGDLFEVLPKLTEAAKLLK”, the protein production is reported as “failed”.
With “MELWLVRHGETLWNREGRLLGWTDLPLTAEGEAQARRLKGALPSLPAFSSDLLRARRTAELAGFSPRLYPELREIHFGALEGALWETLDPRYKEALLRFQGFHPPGGESLSAFQERVFRFLEGLKAPAVLFTHGGVVRAVLRALGEDGLVPPGSAVAVDWPRRVLVRLALDGEEATG” the protein production was “not failed”.
In the case of “MKTTRTCKINSITKEQTEALITLIRTFESAKRYSFNRLIEGESEKELIKKLQLKYLLNKRFCEDAVLQVQTILSSQKELLPVYLENNQKKLEKTLQKKMIMKVAGKTQKKFH”, the protein production is reported as “failed”.
For “MRIYLFLNKNYKIFILFLILILNSKLAYSQRLIRIGKEEMKNKNYIQAIETLSDAIKKYPKVQLGYYFLSIAYRENNQLTEAEGALLDGIAVGGEIDYILYYELGNIMFNRGEGYYPLAIKYYSNSIKSRPNYDSALLNRANAYVQQGKITSKEKEYQKAWDSYTMAIHDYSQFITLRSKTEKKDSILLIISYLRNEKINLEQLDKSLKGRTEHIVYAKEDKNQILKDSFKDNLETNSLIELEKLNWQEELYIDE”, the protein production was “failed”.
In the case of “AHSSLGAPVHLWGTEEVAAWLEHLSLCEYKDIFTRHDIRGSELLHLERRDLKDLGVTKVGHMKRILCGIKELSRSAPAVEA”, the protein production is reported as “failed”.
In the case of “MKIITCYKSVPDEQDIVVNNADGSLDFSRANNKISQYDLNAIEAANQLKTQLDGIQITAMSVGGNALTNAKARKDVLSRGADDLVVVVDEQLEASLPYQTATVLAAAATKQGYDLILCGDGSADLSSQQVSLLVGEILNIPAINGVNKIVSITTDSITVERELENEIETLTITLPAVIAVSTDINSPQIPSMKAILGAAKKPVQQWSVADLGLEPITPRSEQTVLAPKQKVRQRIIIEGDGDDQIAEFAEYLRKIIK”, the protein production is reported as “failed”.
In the case of “MKKRLLKSFSFSYNSQDENRRLLERLMQYKSKDADKLNEENESIIRKRSAKLKRDLEDAVREPSSSSNAASSPGAASLQRNSSPAQFVGGLIGDEDFDEAAINGAMEAIGLDDNEYISARFTAGEIAENSRASIDTLKATGYLGQANPTKILMKFEAHENESHAVRWSPVERMVATGGADRKVKLWDIGKNSTEPRAVLSGSSAGINSVDFDSTGAYILGTSNDYGARVWTVMDNRLRHTLTGHSGKVMAAKYVQEPIKVVTGSHDRTLKIWDLRSIACIETKFAGSSCNDLVTTDSLGSTIISGHYDKKIRFWDIRTEKQADDVLMPAKITSLDLSKDCNYLICSVRDDTIKLLDLRKNQVISTFTNEHFKISCDFARASFNSSGLKIACGSADGAIYIWNVNGFLEATLKGHSTAVNAVSWSPNNNMLASVGKNKRCTIYSES”, the protein production is reported as “failed”.
For “MSVLVVGGDEITPIKAVLENLGCKDITHWDGRRESINRKNIPQNTECLVLLTNFLNHNTMKKFRGEAKKRNIPVVCSKRSVSCLYCEYCKIFGEAAAKNCPLNSFELEHHHHHH”, the protein production was “failed”.
In the case of “MASKSGSGGLREPPNEQAVLNMYEGKRSELSQIYSNITDLEMQVSEHSLVINAIQPLDQSRKCFRMIGGVLVERTIKEVLPAVQRNKDGLEEVVRKLYETLEKKKKDLTEFEAKYKIRITKQEDNKEGGNKKEGNAQGVLVGAASSSQ”, the protein production is reported as “failed”.
In the case of “MLHTEKVEYVNQAHEDITGIARDKSIGTNLRDLTFFRQHNALAEQTLAKIFRGDQAKGEVQFSRTDGSRYWLKYIVSQFITDRGNHYALVSGEENSDEHNYKAELEHHHHHH”, the protein production is reported as “not failed”.
With “MSKKKILIFISVILIIFGGVYLKMKYDEKAKQKEIYYKEQQERITLYLKYNTKKPNTIKSVHFTSLEQGPMGDAIIEGYINNNKEDEFVAFASPENNYQFGGGLTADVKIFKLLKPANESRSPNEIKKDLDKKKERLEHHHHHH” the protein production was “not failed”.
In the case of “MGENNSHKHSLLFIVLISCAAGLGGLLYGYDTAVISGAIGFLKKLYNLSPAMQGFVISSIMVGGVLGVGFSGFLGDAIGRRKVLMLAAALFAISAVISSISTSAFMLIFARIVGGLGIGMASALSVTYITECAPPSIRGRLSSLYQLFTILGISITFFVNLGIVNMGSETWRVSTGWRYMLACGTVPAIVFLITLFFVPESPRFLVKSGNIKKAAAVLTKINGAEIAKQELDSISKSLATENDSSLGQLLQPGLRRALLIGIFLAIFNQAIGMNSITYYGPEIFQMIGFKNNSSFLATSVIGVVEVFSTILAMFLIDKLGRKKLMEIGSAAMAVFMLLIGTSFYIKLSNGFVILIFIICFVVSFCISMGPIPWIMIPEIFPNHLRARATGIATIFLWGANWAIGQFTPMLLNGIGGAYTFWIFCGINVICFLVVTTKVPETKNKSLEEIEKFWIPKSKQNAKGSSVGAK”, the protein production is reported as “failed”.
In the case of “ADLGRKITSALRSLSNATIINEEVLNAMLKEVCTALLEADVNIKLVKQLRENVKSAIDLEEMASGLNKRKMIQHAVFKELVKVKVY”, the protein production is reported as “not failed”.
